5 sequences from the supplement of paper PMC5998384 can be followed below.

Data set [1] relates to HeLa Kyoto. Description: solubility in G1/S (NP-40 vs SDS abundance) (log2 ratio); higher = more soluble. The conditions noted are these: cell cycle stage: G1/S.
The test system of data set [2] is HeLa Kyoto. In words: melting temperature (median over replicates), in situ; higher = more thermally stable.
Data set [3] has as its system HeLa Kyoto. Description: solubility change mitosis vs G1/S (difference of NP-40 vs SDS log2 ratios) (log2 ratio difference); higher = more soluble in mitosis.
Data set [4] relates to HeLa Kyoto. In words: thermal stability score vs G1/S (z-score of summed log2 fold changes over temperatures); higher = more thermally stable than in G1/S.
[5] abbreviates: cell cycle stage: early G1 (4.5 h after nocodazole release).
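For melting temperature (median over replicates), in situ in this document: HeLa Kyoto cells synchronized by double thymidine or nocodazole block, proteins quantified by TMT10plex mass spectrometry, three independent biological replicates.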
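For solubility change mitosis vs G1/S (difference of NP-40 vs SDS log2 ratios) in this document: synchronized HeLa Kyoto cells (double thymidine block for G1/S, nocodazole release for mitosis), protein amounts in NP-40 versus SDS lysates quantified by mass spectrometry, three biological replicates.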
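For solubility in G1/S (NP-40 vs SDS abundance) in this document: HeLa Kyoto cells arrested at G1/S by double thymidine block, proteins quantified by TMT10plex mass spectrometry in mild NP-40 versus SDS extracts, three biological replicates.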
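For thermal stability score vs G1/S (z-score of summed log2 fold changes over temperatures) in this document: synchronized HeLa Kyoto cells, proteins quantified by TMT10plex mass spectrometry, three biological replicates, mitosis taken 0.5 h after nocodazole release, G1/S directly after double thymidine block.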

As for “MAAMETETAPLTLESLPTDPLLLILSFLDYRDLINCCYVSRRLSQLSSHDPLWRRHCKKYWLISEEEKTQKNQCWKSLFIDTYSDVGRYIDHYAAIKKAWDDLKKYLEPRCPRMVLSLKEGAREEDLDAVEAQIGCKLPDDYRCSYRIHNGQKLVVPGLLGSMALSNHYRSEDLLDVDTAAGGFQQRQGLKYCLPLTFCIHTGLSQYIAVEAAEGRNKNEVFYQCPDQMARNPAAIDMFIIGATFTDWFTSYVKNVVSGGFPIIRDQIFRYVHDPECVATTGDITVSVSTSFLPELSSVHPPHYFFTYRIRIEMSKDALPEKACQLDSRYWRITNAKGDVEEVQGPGVVGEFPIISPGRVYEYTSCTTFSTTSGYMEGYYTFHFLYFKDKIFNVAIPRFHMACPTFRVSIARLEMGPDEYEEMEEEEEEEEEEDEDDDSADMDESDEDDEEERRRRVFDVPIRRRRCSRLF [FBXO3]”, the “solubility in G1/S (log2)” value in the data set on HeLa Kyoto [1] was -0.00208. The melting temperature in the data set with HeLa Kyoto [2] (cell cycle stage: G1/S) was 53.9 °C; in the data set with HeLa Kyoto [2] (cell cycle stage: mitosis), 53.3 °C. Moreover, in the data set with HeLa Kyoto [3], the “solubility change mitosis (log2)” value is -0.0407. Also, the values for the thermal stability score in the data set with HeLa Kyoto [4] (setting [5]) and in the data set on HeLa Kyoto [4] (cell cycle stage: mitosis) were 0.236 and 0.497, respectively.

For the sequence “MAAPALGLVCGRCPELGLVLLLLLLSLLCGAAGSQEAGTGAGAGSLAGSCGCGTPQRPGAHGSSAAAHRYSREANAPGPVPGERQLAHSKMVPIPAGVFTMGTDDPQIKQDGEAPARRVTIDAFYMDAYEVSNTEFEKFVNSTGYLTEAEKFGDSFVFEGMLSEQVKTNIQQAVAAAPWWLPVKGANWRHPEGPDSTILHRPDHPVLHVSWNDAVAYCTWAGKRLPTEAEWEYSCRGGLHNRLFPWGNKLQPKGQHYANIWQGEFPVTNTGEDGFQGTAPVDAFPPNGYGLYNIVGNAWEWTSDWWTVHHSVEETLNPKGPPSGKDRVKKGGSYMCHRSYCYRYRCAARSQNTPDSSASNLGFRCAADRLPTMD [SUMF1]”, in the data set with HeLa Kyoto [1], the “solubility in G1/S (log2)” value came to 0.277. Also, the melting temperature with HeLa Kyoto [2] (cell cycle stage: G1/S) came out at 53.7 °C; in the data set on HeLa Kyoto [2] (cell cycle stage: mitosis), 55.1 °C. Besides, the “solubility change mitosis (log2)” value with HeLa Kyoto [3] amounted to 0.0674. In addition, the thermal stability score was -1.37 in the data set on HeLa Kyoto [4] (setting [5]) and 2.23 in the data set on HeLa Kyoto [4] (cell cycle stage: mitosis).

Turning to “MAAPAPGLISVFSSSQELGAALAQLVAQRAACCLAGARARFALGLSGGSLVSMLARELPAAVAPAGPASLARWTLGFCDERLVPFDHAESTYGLYRTHLLSRLPIPESQVITINPELPVEEAAEDYAKKLRQAFQGDSIPVFDLLILGVGPDGHTCSLFPDHPLLQEREKIVAPISDSPKPPPQRVTLTLPVLNAARTVIFVATGEGKAAVLKRILEDQEENPLPAALVQPHTGKLCWFLDEAAARLLTVPFEKHSTL [PGLS]”, in the data set with HeLa Kyoto [1], the “solubility in G1/S (log2)” value was found to be 0.254. The results for the melting temperature in the data set with HeLa Kyoto [2] (cell cycle stage: G1/S) and in the data set on HeLa Kyoto [2] (cell cycle stage: mitosis) were 54.8 °C and 55.2 °C, respectively. Besides, the “solubility change mitosis (log2)” value in the data set on HeLa Kyoto [3] was determined as 0.237. Moreover, the thermal stability score is -2.51 in the data set on HeLa Kyoto [4] (setting [5]) and -2.63 in the data set with HeLa Kyoto [4] (cell cycle stage: mitosis).

Consider “MAAPAQPKKIVAPTVSQINAEFVTQLACKYWAPHIKKKSPFDIKVIEDIYEKEIVKSRFAIRKIMLLEFSQYLENYLWMNYSPEVSSKAYLMSICCMVNEKFRENVPAWEIFKKKPDHFPFFFKHILKAALAETDGEFSLHEQTVLLLFLDHCFNSLEVDLIRSQVQQLISLPMWMGLQLARLELELKKTPKLRKFWNLIKKNDEKMDPEAREQAYQERRFLSQLIQKFISVLKSVPLSEPVTMDKVHYCERFIELMIDLEALLPTRRWFNTILDDSHLLVHCYLSNLVRREEDGHLFSQLLDMLKFYTGFEINDQTGNALTENEMTTIHYDRITSLQRAAFAHFPELYDFALSNVAEVDTRESLVKFFGPLSSNTLHQVASYLCLLPTLPKNEDTTFDKEFLLELLVSRHERRISQIQQLNQMPLYPTEKIIWDENIVPTEYYSGEGCLALPKLNLQFLTLHDYLLRNFNLFRLESTYEIRQDIEDSVSRMKPWQSEYGGVVFGGWARMAQPIVAFTVVEVAKPNIGENWPTRVRADVTINLNVRDHIKDEWEGLRKHDVCFLITVRPTKPYGTKFDRRRPFIEQVGLVYVRGCEIQGMLDDKGRVIEDGPEPRPNLRGESRTFRVFLDPNQYQQDMTNTIQNGAEDVYETFNIIMRRKPKENNFKAVLETIRNLMNTDCVVPDWLHDIILGYGDPSSAHYSKMPNQIATLDFNDTFLSIEHLKASFPGHNVKVTVEDPALQIPPFRITFPVRSGKGKKRKDADVEDEDTEEAKTLIVEPHVIPNRGPYPYNQPKRNTIQFTHTQIEAIRAGMQPGLTMVVGPPGTGKTDVAVQIISNIYHNFPEQRTLIVTHSNQALNQLFEKIMALDIDERHLLRLGHGEEELETEKDFSRYGRVNYVLARRIELLEEVKRLQKSLGVPGDASYTCETAGYFFLYQVMSRWEEYISKVKNKGSTLPDVTEVSTFFPFHEYFANAPQPIFKGRSYEEDMEIAEGCFRHIKKIFTQLEEFRASELLRSGLDRSKYLLVKEAKIIAMTCTHAALKRHDLVKLGFKYDNILMEEAAQILEIETFIPLLLQNPQDGFSRLKRWIMIGDHHQLPPVIKNMAFQKYSNMEQSLFTRFVRVGVPTVDLDAQGRARASLCNLYNWRYKNLGNLPHVQLLPEFSTANAGLLYDFQLINVEDFQGVGESEPNPYFYQNLGEAEYVVALFMYMCLLGYPADKISILTTYNGQKHLIRDIINRRCGNNPLIGRPNKVTTVDRFQGQQNDYILLSLVRTRAVGHLRDVRRLVVAMSRARLGLYIFARVSLFQNCFELTPAFSQLTARPLHLHIIPTEPFPTTRKNGERPSHEVQIIKNMPQMANFVYNMYMHLIQTTHHYHQTLLQLPPAMVEEGEEVQNQETELETEEEAMTVQADIIPSPTDTSCRQETPAFQTDTTPSETGATSTPEAIPALSETTPTVVGAVSAPAEANTPQDATSAPEETK [AQR]”, for which the “solubility in G1/S (log2)” value in the data set with HeLa Kyoto [1] was -0.435. In addition, the melting temperature with HeLa Kyoto [2] (cell cycle stage: G1/S) came out at 48 °C; in the data set on HeLa Kyoto [2] (cell cycle stage: mitosis), 50 °C. Besides, the “solubility change mitosis (log2)” value with HeLa Kyoto [3] was found to be 0.0502. Moreover, the thermal stability score in the data set with HeLa Kyoto [4] (setting [5]) came out at 0.352; in the data set with HeLa Kyoto [4] (cell cycle stage: mitosis), 2.51.

Consider “MAAPEEHDSPTEASQPIVEEEETKTFKDLGVTDVLCEACDQLGWTKPTKIQIEAIPLALQGRDIIGLAETGSGKTGAFALPILNALLETPQRLFALVLTPTRELAFQISEQFEALGSSIGVQSAVIVGGIDSMSQSLALAKKPHIIIATPGRLIDHLENTKGFNLRALKYLVMDEADRILNMDFETEVDKILKVIPRDRKTFLFSATMTKKVQKLQRAALKNPVKCAVSSKYQTVEKLQQYYIFIPSKFKDTYLVYILNELAGNSFMIFCSTCNNTQRTALLLRNLGFTAIPLHGQMSQSKRLGSLNKFKAKARSILLATDVASRGLDIPHVDVVVNFDIPTHSKDYIHRVGRTARAGRSGKAITFVTQYDVELFQRIEHLIGKKLPGFPTQDDEVMMLTERVAEAQRFARMELREHGEKKKRSREDAGDNDDTEGAIGVRNKVAGGKMKKRKGR [DDX47]”, for which the “solubility in G1/S (log2)” value in the data set with HeLa Kyoto [1] was -1.22. For the same sequence, the values for the melting temperature in the data set with HeLa Kyoto [2] (cell cycle stage: G1/S) and in the data set on HeLa Kyoto [2] (cell cycle stage: mitosis) were 50.9 °C and 51.3 °C, respectively. In addition, the “solubility change mitosis (log2)” value with HeLa Kyoto [3] was found to be 0.607. In addition, the thermal stability score in the data set on HeLa Kyoto [4] (setting [5]) is 0.865; in the data set with HeLa Kyoto [4] (cell cycle stage: mitosis), 1.97.
